# This sample holds only a part of the variants without activity.
# B1: TPR 5TU (parent)
# chain: GGAUCUUCUCGAUCUAACAAAAAAGACAAAUCUGCCACAAAGCUUGAGAGCAUCUUCGGAUGCAGAGGCGGCAGCCUUCGGUGGCGCGAUAGCGCCAACGUUCUCAACUAUGACACGCAAAACGCGUGCUCCGUUGAAUGGAGUUUAUCAUG
# Variants of: B1
# Test: polymerase ribozyme fitness, log enrichment relative to wild type (log ratio); higher = more active; in vitro selection for triplet polymerase activity
# Method in brief: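 A heterodimeric triplet polymerase ribozyme had each of its subunits mutagenized by PCR into a library, which was transcribed. One round of in vitro selection, done in triplicate, annealed each library with a biotinylated primer, its partner subunit and triplets, then incubated it frozen at −7 °C before gel excision of extended constructs, streptavidin-bead capture and RT-PCR. Fitness is the logarithm of genotype enrichment relative to wild-type enrichment, based on Illumina sequencing of inputs and outputs and inverse-variance-weighted replicate averages. A base-2 logarithm is used, and genotypes were kept only with ≥10 input reads and ≥1 read per output.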
row,Variant,polymerase ribozyme fitness (log ratio)
1,G50C C76U C85U C116G,-2.09
2,A41C C95G,-0.72
3,U31C C43A A66C C79U C85A A120C G140U,≤ -4.2
4,A26G A29C C79A G100A,≤ -4.2
5,U56A U78G G92A U144A,≤ -4.2
6,A66G C69A G84U A138U,≤ -4.2
7,A16U C63U,-1.7
8,A52U G58C U78A A122G,≤ -4.2
9,C76U A150U,0.843
10,G84U C105A U139C,-4.17
11,A21U A41G C95A C96A,-0.65
12,A29G G50A G80U A91C U134A U146C,≤ -4.2
13,C57U C87U A113C A119G,-3.09
14,C38A U55A A106C G117A U146A,-1.67
15,C72U C87U C105A,-3.79
16,A3G A19C G92A A98G,-3.18
17,A40U C57G,0.32
18,G42C U90C U109A,≤ -4.2
19,A24U C96G,-0.301
20,C57G A91G,-4.08
21,U56A G88U,-3.06
22,A41G C51A G83A,-2.57
23,U53A G92A,-3.87
24,G25U G84U,-3.64

row,Variant,polymerase ribozyme fitness (log ratio)
1,A52G U104G,-1.26
2,G80C G94A,≤ -4.2
3,U31A G83C C105U U127G G133A A137C,≤ -4.2
4,A17G C93G C95U,≤ -4.2
5,A26C G83C,-2.82
6,C103G G141U,-3.36
7,U61A C72U,-3.66
8,C32U,-1.22
9,C96U G141C,-0.372
10,A30U C43U G70U C87G,≤ -4.2
11,U56A A60U C93U G141U,-3.71
12,C14G A40U A73G U104C,≤ -4.2
13,U61C A98U C103G A115G C131U,≤ -4.2
14,G50U C95U C118A G140A,≤ -4.2
15,A21C A137G,-0.909
16,U6C G83C A91C U145C,≤ -4.2
17,U15A U145C,0.0727
18,A40C A52C G86A A98G,-2.37
19,U13G C54G,-3.62
20,G86A A113C,-3.53
21,U6G C10U A12U U33G A37U C95A U135A G141U U144C,≤ -4.2
22,A16U C18A A40G G74A G80C G83U G86A A97U,≤ -4.2
23,U55A G67A C85U U90A A98U,≤ -4.2
24,A64C A115U A142U G143U,≤ -4.2

row,Variant,polymerase ribozyme fitness (log ratio)
1,A37U C87U,-0.99
2,U31G U145A,0.652
3,G81C G86A,-1.83
4,G11U A47G U53A,-2.54
5,C76U G88U A91C C93U G140C,≤ -4.2
6,C14A C38G G81U G94U,-3.15
7,A47U G48C G71C G94A C108G G124C G141A,≤ -4.2
8,A52G A121C,-0.337
9,U7C C18U U61C C69A C93A C114U,≤ -4.2
10,G42C C72U,≤ -4.2
11,A49U A107C,≤ -4.2
12,A21U A30C C51U G71U C85U,≤ -4.2
13,U7A A119G A120C,-3.25
14,U7C A12G C96U,-2.17
15,C38U C125A,-0.6
16,G94U C114G C116U,≤ -4.2
17,A16U U139G G140U,≤ -4.2
18,A17U U55A,-1.08
19,A12C A19C U45G G84U A142C,≤ -4.2
20,A115G G141A,-0.426
21,G50C U134C,-2.51
22,U4A C132G U139G,-3.71
23,A47C U55A A60G,-0.228
24,U33G U56A U90A U101G C108G A119U U135C G136A,≤ -4.2

row,Variant,polymerase ribozyme fitness (log ratio)
1,C10A C69U,≤ -4.2
2,A30G G42U A113U C114U C125U,≤ -4.2
3,G58C U111G C116A A137C,≤ -4.2
4,C43U A47U G59A C75A C93U G126C G133A,≤ -4.2
5,A52U C93U A119U G124U,-3.24
6,A29G U55A C95U U101C U109A G133A,≤ -4.2
7,U4C C36U A49G A66U G83A C85G G88A C114U U146G,≤ -4.2
8,C35U A49G A97G A119C,-2.09
9,C8A U13G G50C C76G C118A,≤ -4.2
10,C51U C131G,-3.49
11,A37G A40U C54G A60G,-2.66
12,A21U G34A G141A C149G,≤ -4.2
13,G58C G83U C85G,-3.33
14,A19U C87U G141U U146C,0.666
15,C93U U102G G117U U135A,≤ -4.2
16,C38U G92A U146A,-2.92
17,A29C C36A U55A U61G C87A,≤ -4.2
18,G81A C85A G136A,0.0509
19,G25C C27A A28G A40U C149A,≤ -4.2
20,G48U U82G C96G,-1.48
21,U4A C57A C75G U134G,≤ -4.2
22,C35U C93G G141A,-3.56
23,A39C U44G C75U C95U A119U G128U,≤ -4.2
24,A28G A138C C149A,≤ -4.2

row,Variant,polymerase ribozyme fitness (log ratio)
1,A17C A47C G94C,-0.464
2,G50U G86C A120C,-3.03
3,C75A G86U,≤ -4.2
4,U56C C132U,-1.47
5,U61C A73U A91U,≤ -4.2
6,A26C C35U U55A C76U C87G G92U A98G,-3.11
7,A12G C38A C96G,-0.0836
8,U33G U44A G46C A73G C76A C95U G133U,≤ -4.2
9,C51U C96A C105A C118U,-2.94
10,G58U G141A,1.05
11,C14A G84A,-1.24
12,G68C A89G A120G A147U U148G,≤ -4.2
13,A52U G67U C85A C125G,≤ -4.2
14,U4A A19C A41U U56C G124A G143A,-3.84
15,C32U A49C,-4.13
16,C87A C123A A150U,-3.19
17,U13C C18A A40C U53A G83A,-2.56
18,G94A G117U,-0.469
19,A21G A52G U102A,-1.09
20,C54A G141A,-0.156
21,G25C C54A C76U G88A,≤ -4.2
22,C18U U55G C75U G92C,-1.73
23,A41C C87G,≤ -4.2
24,U55A C69A U77C A89G,≤ -4.2

row,Variant,polymerase ribozyme fitness (log ratio)
1,C57G A98U,-0.592
2,U55G C85G,-1.66
3,A52C A73G,-1.89
4,U7C A73G U82A G136C,≤ -4.2
5,A21G G50C A52C C79U C118U,≤ -4.2
6,A39U C118U,-2.03
7,A22C A49C G84C G94U,≤ -4.2
8,C57U U78A G80A A138G U139G,≤ -4.2
9,A30G G42A U55G G65A C76G C87G A106U G143A A147C,≤ -4.2
10,G48A G83U A98G G140C,≤ -4.2
11,C5G U7A U56A A91C A106G C125A G136A U145A,≤ -4.2
12,A21G A41C G46A G65U,≤ -4.2
13,C54U A110C C114U A121U,-4.15
14,U7C A17G A23U A52C C76G C85U C93A G128U G152C,≤ -4.2
15,C54U G70A G83A U90A G143U,≤ -4.2
16,G42A U53A,≤ -4.2
17,A120C C125G G133U,-3.85
18,G92C U134G,-1.68
19,A29U A142G C149U,≤ -4.2
20,U4C A12G C14U A40G G50A G84U U145C,≤ -4.2
21,A40C A49C C54A C96U C114U G126A,≤ -4.2
22,A12U C63A U78G C95U,≤ -4.2
23,C38A C93A G143U,-4.12
24,A21U A40C,1.56

row,Variant,polymerase ribozyme fitness (log ratio)
1,C76A A138U,-4.05
2,A3U A16C A52U C57U C76U G86U,≤ -4.2
3,C93U A106C C129G G143A,-3.64
4,A12U A22U C27U A40G C69A U78A G94A A115C A119U G124A,≤ -4.2
5,A40C A52G C79A C85U C99A A106G A142U G152U,≤ -4.2
6,C38G G92A C105G,≤ -4.2
7,C18A U31G G84C A89U,-2.91
8,C5A U6G U13G U53A C116G G126U,-3.78
9,U4G A21U U31A G84U A115C,-3.65
10,C38U G46A C95A,-0.705
11,G59U A89U C95G,-2.27
12,A73U U90G G117U G133U,≤ -4.2
13,A21C G84A C118A,-0.563
14,C54U G74C,-3.95
15,C5A U13G C27A G34A G42C C96A,≤ -4.2
16,G58A C87U,-0.808
17,U7G A40G A52C G65U A73G U82A C93G U134A U148G,≤ -4.2
18,A20C U53A,-2.16
19,A22C C69A G80C C85U A89U A142G,≤ -4.2
20,A21U A24U G94U A97G A150C,≤ -4.2
21,G92A C105A,-3.36
22,A20U G83A C96G C118U U134A U144A,-3.46
23,G84U C96A C103U A113U,≤ -4.2
